{"source": "patent US12156889B2", "about": "“Methods of administering mesenchymal stem cells activated by cytokines for enhancing immunosuppression” (Rutgers, The State University of New Jersey, priority 2012, dated 2024)", "key": {"[1]": {"test_system": "CD4+ T cell blasts", "assay": "T cell blast proliferation in co-culture with MSCs (3H-thymidine incorporation)", "type": "cell-based, mouse", "description": "FIG. 1. is a graph showing that immunosuppression by MSCs is induced by proinflammatory cytokines. Cloned MSCs were supplemented with the indicated combinations of recombinant cytokines (20 ng/ml each) for 8 hours, then co-cultured with CD4+ T cell blasts at a 1:20 ratio (MSC:T cells), and proliferation assessed after an additional 8 hours. Values represent means±SD of five wells from a representative of three experiments with different clones. * p<0.001.\nFIGS. 9A, 9B, 9C, 9D, 9E, 9F and 9G. (FIG. 9A). Cloned MSCs were first treated with the indicated combinations of recombinant cytokines IFNγ, TNFα, IL-17A (2 ng/ml each) for 12 hr, then cocultured with CD4^+ T cell blasts at a 1:20 ratio (MSC:T cells), and proliferation was assessed by 3H-thymidine incorporation after an additional 12 hr. (FIG. 9B). The mRNA expression of IL-17 receptor family members in MSCs or Raw 264.7 (Macrophages) were examined by RT-PCR. NC: No RT. (FIG. 9C). Surface expression of IL-17RA was detected by immunofluoresence or flow cytometry in cloned MSCs. (FIGS. 9D and 9E). MSCs were first treated with IFNγ and TNFα with or without IL-17A (10 ng/ml), IFNγ and TNFα were supplemented at different cytokine concentrations, for 12 hr, and then cocultured with CD4^+ T cell blasts (FIG. 9D) or T cell hybridoma A1.1 cells (FIG. 9E) at a ratio of 1:20 for 12 hr. T cell proliferation was measured by 3H-Tdr incorporation. (FIG. 9F). MSCs were first treated with IFNγ and TNFα (2 ng/ml) with graded concentrations of IL-17A, for 12 hr, and then cocultured with T cell hybridoma A1.1 cells at a ratio of 1:10 for 12 hr. T cell proliferation was measured by 3H-thymidine incorporation. (FIG. 9G). MSCs were cocultured with fresh C57BL/6 splenocytes plus anti-CD3, anti-CD28, and antibodies against IL-17A, at a 1:20 or 1:40 ratio (MSCs:splenocytes), for 48 hr, and then cell proliferation was assessed by 3H-thymidine incorporation. Proliferation values represent means±SEM of three wells from a representative of three experiments.\nT cell blasts were generated from CD4^+ T cells purified by negative selection with […] T cell subset isolation kits (R&D Systems). Cells (1×10^6 cells/ml) were activated by plastic-bound anti-CD3 and soluble anti-CD 28 for 48 hours, then cultured with IL-2 (200 U/ml) alone for 48 hours. All T cell cultures were maintained in RPMI-1640 medium supplemented with 10% heat-inactivated FBS, 2 mM glutamine, 100 U/ml penicillin, 100 μ·g/ml streptomycin, and […] (complete medium).\nSince most reported studies of immunosuppression by MSCs are based on their effects on T cell proliferation and cytokine production, the effect of MSCs was first examined on the IL-2-driven proliferation of T cell blasts. Fresh CD4^+ T cell blasts were generated from splenocytes by activation with anti-CD3 followed by expansion with IL-2 for several days (Devadas, et al. (2006) Immunity 25:237-247; Radvanyi, et al. (1996) Cell Immunol. 170:260-273). T cell blasts were added at a 1:20 ratio (MSC:T cells) along with IL-2 (200 U/ml). Cell proliferation was assessed by ^3H-Tdr incorporation after 8 hours. […] MSCs also had no effect on the proliferation of T hybridoma A1.1 cells. These T cells blasts and T hybridoma cells, however, produce no cytokines unless reactivated through the TCR (Fotedar, et al. (1985) J. Immunol. 135(5):3028-33). Thus, in the absence of T cell cytokines, MSCs were unable to suppress T cell proliferation.\nThe effect of IFNγ was then tested directly by adding isolated recombinant IFNγ (20 ng/ml) instead of activated splenocyte supernatant to the mixed co-cultures of MSC+ T cell blasts or MSC+A1.1 cells. […] Therefore, induction of the immunosuppressive function of MSCs by anti-CD3-activated splenocyte supernatant may be due to IFNγ acting in concert with either TNFα; IL-1α; or IL-1β on the MSCs. […]"}, "[2]": {"test_system": "MSCs", "assay": "Messenger RNA decay assay in MSCs after actinomycin D", "type": "cell-based, mouse", "description": "FIGS. 8A and 8B. IL-17A prevented the decay of iNOS mRNA, (FIG. 8A) the iNOS mRNA stability was measured at different time points after actinomycin D treatment in IFNγ+TNFα and IFNγ+TNFα+IL-17A treatment groups. (FIG. 8B) iNOS expression enhancing effect of IL-17A at different times after IFNγ and TNFα treatment.\nFIGS. 13A and 13B. Wild-type (FIG. 13A) or […] (FIG. 13B) were treated with IFNγ and TNFα, with or without IL-17A (all cytokines supplemented at 10 ng/ml), for 6 hr, and then actinomycin D (5 μg/ml) was added to stop transcription. At the indicated time points, mRNA levels were assayed by quantitative RT-PCR, taking the expression level at the time of actinomycin.D addition as 100%. mRNA expression values are means±SD of three wells from a representative of three independent experiments.\nMessenger RNA decay assays-Messenger RNA decay assays were performed essentially. MSCs were incubated with cytokine combinations for 6 hr. Actinomycin D (Act.D) was added into the medium at a final concentration of 5 μg/ml to stop transcription. At various time points after addition of Act.D, cells were harvested for extraction of total RNA.\nLevels of iNOS, CXCL1, CCL2, CXCL10 and IL-6 mRNAs were measured at each time point by quantitative RT-PCR and normalized to levels of β-actin mRNA. Percentages of mRNA remaining for each time point were plotted versus time after Act.D addition. First order decay constants, k, were determined by nonlinear regression. The associated mRNA half-lives, t1/2, were calculated with the equation t1/2=ln2/k."}}, "note": "Entries after “also recorded” stand apart in the source; their conditions may differ."}
{"molecule": "IL-17A: recombinant mouse interleukin 17A (protein) AAIIPQSSACPNTEAKDFLQNVKVNLKVFNSLGAKVSSRRPSDYLNRSTSPWTLHRNEDPDRYPSVIWEAQCRHQRCVNAEGKLDHHMNSVLIQQEILVLKREPESCPFTFRVEKMLVGVGCTCVASIVRQAA", "values": [{"measurement": "T cell proliferation after MSC treatment with low-concentration cytokines", "setting": "[1]; 2 ng/ml each, 12 hr, then 1:20 MSC:T cells", "value": "cannot induce immunosuppression; also recorded: markedly enhanced"}, {"measurement": "IFNγ and TNFα concentrations (as low as) at which IL-17A enhances the immunosuppressive effect of MSCs", "setting": "[1]; 10 ng/ml IL-17A, CD4+ T cell blasts or A1.1", "value": "1 to 2", "unit": "ng/mL"}, {"measurement": "immunosuppression at higher concentrations of IFNγ and TNFα", "setting": "[1]; IFNγ and TNFα 10-20 ng/ml", "value": "still improved immunosuppression"}, {"measurement": "half-lives of iNOS and IL-6 mRNAs in AUF1 knockout MSCs", "setting": "[2]; added to IFNγ+TNFα", "value": "no effect"}, {"measurement": "stabilization of CXCL1 mRNA in AUF1 knockout MSCs", "setting": "[2]; added to IFNγ+TNFα", "value": "at least twofold"}, {"measurement": "stabilization of iNOS, IL-6, and CXCL1 mRNAs in wild-type MSCs", "setting": "[2]; added to IFNγ+TNFα", "value": "twofold stabilization"}, {"measurement": "iNOS mRNA stability", "setting": "[2]; supplement to IFNγ+TNFα, within the time points tested", "value": "completely protected"}]}
